This is an account of results in publication PMC9675734, “Phosphorylation disrupts long-distance electron transport in cytochrome c” (Nature Communications, 2022).

The experiment has as its target T1, soluble domain of Arabidopsis thaliana cytochrome c1 (Arabidopsis thaliana, UniProt Q9FKS5 64-265).
T1 construct: Hemeprotein; Immobilised on Au(111) through Cys10 (AFM, EC-STM) or by amine coupling on the biochip (SPR); also called Cc1; plant cytochrome Cc1; source: E. coli BL21 (DE3), pET-Cc1 with pEC86 (ccmABCDEFGH), purified (Nuvia Q anion exchange, ENrich SEC 70)
T1 sequence (looked up): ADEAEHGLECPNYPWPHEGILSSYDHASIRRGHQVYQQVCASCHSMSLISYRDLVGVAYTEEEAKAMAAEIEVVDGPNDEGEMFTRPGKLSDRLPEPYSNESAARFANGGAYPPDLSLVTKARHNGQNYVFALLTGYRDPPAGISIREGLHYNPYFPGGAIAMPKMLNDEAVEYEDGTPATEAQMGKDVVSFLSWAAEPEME
Briefly: SPR; SPRi; Cc1 immobilised by direct amine coupling on a CS SPRi-Biochip (10 and 15 uM drops); WT or Y48pCMF Cc flowed at 2.5 to 10 uM, 50 uL/min; 298 K; 10 mM sodium phosphate buffer pH 6.5; reference spots with rabbit serum albumin subtracted; 1:1 binding model. Conditions: both partners purified. A general note: In SPR one partner is held on a chip, and binding of the other changes the refractive index at the surface.

What is called Kd is the concentration at which binding is half-saturated. Higher therefore signals weaker binding. What is called koff is the rate constant with which the complex falls apart. A high value points to a short-lived complex. By kon is commonly meant the second-order rate constant of association. A high value points to faster complex formation.

B1: Homo sapiens WT cytochrome c (natural protein)
chain: not shown
notes: cytochrome c, human, CYCS gene in plasmid pBTR1-WT; Hemeprotein (heme c attached by the co-expressed heme lyase); Used as analyte in SPR; also called Cc; WT Cc; source: E. coli BL21 (DE3), pBTR1-WT with yeast Cc heme lyase (CYC3), purified (Nuvia S cation exchange)
Regarding B1, the Kd was 527 nM, the koff is 0.00318 s⁻¹ and the kon is 6540 M⁻¹ s⁻¹.
